Broadly, the Kd is the concentration at which binding is half-saturated. A high value points to a looser complex.

The target in the experiment is Sso7d-NanoLuc large fragment fusion.
The molecule NVTGYRLFKKISN [NS4] came in with a Kd of 8.5 nM.

The molecule NVSGWRLFKKISN [NS5-Stoffel fusion (NanoLuc small fragment NS5)] showed a Kd of 3.4 nM.

GVTGWRLCERILA [NS6] had a Kd of 900 nM.

For the origin of these results see PMC7736784 (2020).
